Source: patent US20040033566A1

How the values were obtained:
[1] = biological target: full-length recombinant human tissue factor (human) (UniProt P13726); assay: SPR, full-length TF captured by TF9-10H10, VIIa premixed with 10 µM 5L15
VIIaGln298 (human) = VIIaGln298 (human) (UniProt P08709); assay: cell-based or functional assay
[2] = biological target: VIIaGln298 in complex with TF1-218 (human) (UniProt P08709); assay: cell-based or functional assay
[3] = biological target: wild-type VIIa in complex with TF1-218 (human) (UniProt P08709); assay: cell-based or functional assay
factor X = factor X (UniProt P00742); assay: cell-based or functional assay
UniProt P00742, sequence (P00742 41-488 limits assumed): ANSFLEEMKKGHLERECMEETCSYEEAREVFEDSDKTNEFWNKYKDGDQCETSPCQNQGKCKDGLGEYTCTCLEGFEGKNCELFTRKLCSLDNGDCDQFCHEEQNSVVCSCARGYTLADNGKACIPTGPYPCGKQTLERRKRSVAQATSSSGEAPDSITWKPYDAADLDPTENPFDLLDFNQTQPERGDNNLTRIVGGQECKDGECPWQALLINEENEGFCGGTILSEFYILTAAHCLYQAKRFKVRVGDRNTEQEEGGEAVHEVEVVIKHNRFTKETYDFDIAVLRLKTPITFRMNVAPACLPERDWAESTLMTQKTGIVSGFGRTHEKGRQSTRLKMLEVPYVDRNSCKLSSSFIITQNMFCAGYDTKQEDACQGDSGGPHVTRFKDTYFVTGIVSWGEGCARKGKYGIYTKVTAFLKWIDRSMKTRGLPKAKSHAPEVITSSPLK

Work on “wild-type VIIa premixed with 10 µM 5L15 (from UniProt P08709 61-212; P08709 213-466)” yielded a Kd [1] of 0.8 nM.
Work on “antithrombin III (from UniProt P01008 33-464)” yielded a time to 50% inhibition of amidolytic activity of free VIIa by 0.5 µM antithrombin III with 5 U/ml heparin (VIIaGln298 (human)) of 31 min, a time to 50% inhibition of amidolytic activity of T.F.-VIIa complex by 0.5 µM antithrombin III with 5 U/ml heparin [2] of 4.5 min and a time to 50% inhibition of amidolytic activity of T.F.-VIIa complex by 0.5 µM antithrombin III with 5 U/ml heparin [3] of 6 min.
“VIIaGln298 bound to phospholipid reconstituted T.F. (from UniProt P08709 61-212; P08709 213-466; P13726 33-295)” gave a KM (nM) of factor X activation by VIIa bound to phospholipid reconstituted T.F. (factor X) of 68 nM.
“wild-type VIIa bound to phospholipid reconstituted T.F. (from UniProt P08709 61-212; P08709 213-466; P13726 33-295)” showed a KM (nM) of factor X activation by VIIa bound to phospholipid reconstituted T.F. (factor X) of 61 nM.
